Measured values published in paper PMC4139157.
pKd: −log10 of the molar value.

Biological target: human plasma fibrinogen (human) (UniProt P02671)
Test: ELISA

UniProt P02671, sequence (P02671 36-866, chain 1 of 3): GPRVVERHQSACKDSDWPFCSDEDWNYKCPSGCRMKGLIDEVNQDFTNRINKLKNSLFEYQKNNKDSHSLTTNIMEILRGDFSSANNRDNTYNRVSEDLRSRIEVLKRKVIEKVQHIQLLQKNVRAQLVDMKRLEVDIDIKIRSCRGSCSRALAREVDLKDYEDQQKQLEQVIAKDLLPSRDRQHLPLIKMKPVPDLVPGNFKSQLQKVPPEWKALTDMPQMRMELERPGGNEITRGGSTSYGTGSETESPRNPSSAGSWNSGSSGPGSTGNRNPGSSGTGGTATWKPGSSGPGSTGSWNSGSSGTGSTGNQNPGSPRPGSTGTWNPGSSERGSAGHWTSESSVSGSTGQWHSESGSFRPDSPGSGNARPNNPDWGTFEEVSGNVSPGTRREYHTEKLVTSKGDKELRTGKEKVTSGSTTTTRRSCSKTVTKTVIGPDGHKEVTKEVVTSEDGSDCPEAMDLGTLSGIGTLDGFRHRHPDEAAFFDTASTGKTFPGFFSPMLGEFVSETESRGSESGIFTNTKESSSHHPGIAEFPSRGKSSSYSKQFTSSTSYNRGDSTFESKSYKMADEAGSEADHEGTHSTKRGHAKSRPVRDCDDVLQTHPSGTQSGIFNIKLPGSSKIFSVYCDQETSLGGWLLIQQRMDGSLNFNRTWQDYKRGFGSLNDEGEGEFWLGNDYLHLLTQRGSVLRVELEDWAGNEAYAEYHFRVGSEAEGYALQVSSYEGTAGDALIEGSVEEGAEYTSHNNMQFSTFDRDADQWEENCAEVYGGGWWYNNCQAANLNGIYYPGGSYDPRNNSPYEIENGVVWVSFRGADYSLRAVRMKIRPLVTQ
UniProt P02671, sequence (P02675 45-491, chain 2 of 3, further chain): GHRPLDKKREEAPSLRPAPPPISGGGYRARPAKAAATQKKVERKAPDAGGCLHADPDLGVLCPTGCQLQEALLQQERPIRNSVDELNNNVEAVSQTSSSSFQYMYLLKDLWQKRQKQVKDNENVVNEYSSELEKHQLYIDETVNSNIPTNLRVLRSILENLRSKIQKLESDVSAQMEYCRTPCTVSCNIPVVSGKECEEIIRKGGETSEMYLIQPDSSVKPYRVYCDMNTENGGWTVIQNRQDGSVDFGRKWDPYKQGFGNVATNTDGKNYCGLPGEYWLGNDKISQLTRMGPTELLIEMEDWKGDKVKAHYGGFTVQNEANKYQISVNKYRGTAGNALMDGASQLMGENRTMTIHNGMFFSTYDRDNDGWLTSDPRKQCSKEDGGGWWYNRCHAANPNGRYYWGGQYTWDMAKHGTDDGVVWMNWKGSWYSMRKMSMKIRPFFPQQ
UniProt P02671, sequence (P02679 27-453, chain 3 of 3, further chain): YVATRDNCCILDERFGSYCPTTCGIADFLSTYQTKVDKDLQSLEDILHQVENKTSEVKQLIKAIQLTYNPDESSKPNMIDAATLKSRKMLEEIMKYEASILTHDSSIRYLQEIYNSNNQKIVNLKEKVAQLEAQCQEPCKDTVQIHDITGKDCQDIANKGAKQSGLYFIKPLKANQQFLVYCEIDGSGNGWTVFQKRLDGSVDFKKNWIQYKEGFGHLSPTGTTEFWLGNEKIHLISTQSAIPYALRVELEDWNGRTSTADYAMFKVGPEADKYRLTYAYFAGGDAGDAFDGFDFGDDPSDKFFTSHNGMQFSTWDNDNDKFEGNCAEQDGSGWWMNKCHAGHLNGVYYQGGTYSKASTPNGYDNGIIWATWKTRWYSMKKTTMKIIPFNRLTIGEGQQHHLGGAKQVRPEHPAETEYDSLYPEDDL

Row | Substance | pKd
1 | Histidine-tagged LigBCen2R (amino acids 1014–1123 of LigB) (domain or fragment) | 3.93
2 | Histidine-tagged LigB-12 (amino acids 1029–1123 of LigB) (domain or fragment) | 3.90
